Experimental data: patent US20150071907A1 (published 2015)

Target: T1, human macrophage mannose receptor (MMR) (human, UniProt P22897 19-1456)
T1 sequence (looked up): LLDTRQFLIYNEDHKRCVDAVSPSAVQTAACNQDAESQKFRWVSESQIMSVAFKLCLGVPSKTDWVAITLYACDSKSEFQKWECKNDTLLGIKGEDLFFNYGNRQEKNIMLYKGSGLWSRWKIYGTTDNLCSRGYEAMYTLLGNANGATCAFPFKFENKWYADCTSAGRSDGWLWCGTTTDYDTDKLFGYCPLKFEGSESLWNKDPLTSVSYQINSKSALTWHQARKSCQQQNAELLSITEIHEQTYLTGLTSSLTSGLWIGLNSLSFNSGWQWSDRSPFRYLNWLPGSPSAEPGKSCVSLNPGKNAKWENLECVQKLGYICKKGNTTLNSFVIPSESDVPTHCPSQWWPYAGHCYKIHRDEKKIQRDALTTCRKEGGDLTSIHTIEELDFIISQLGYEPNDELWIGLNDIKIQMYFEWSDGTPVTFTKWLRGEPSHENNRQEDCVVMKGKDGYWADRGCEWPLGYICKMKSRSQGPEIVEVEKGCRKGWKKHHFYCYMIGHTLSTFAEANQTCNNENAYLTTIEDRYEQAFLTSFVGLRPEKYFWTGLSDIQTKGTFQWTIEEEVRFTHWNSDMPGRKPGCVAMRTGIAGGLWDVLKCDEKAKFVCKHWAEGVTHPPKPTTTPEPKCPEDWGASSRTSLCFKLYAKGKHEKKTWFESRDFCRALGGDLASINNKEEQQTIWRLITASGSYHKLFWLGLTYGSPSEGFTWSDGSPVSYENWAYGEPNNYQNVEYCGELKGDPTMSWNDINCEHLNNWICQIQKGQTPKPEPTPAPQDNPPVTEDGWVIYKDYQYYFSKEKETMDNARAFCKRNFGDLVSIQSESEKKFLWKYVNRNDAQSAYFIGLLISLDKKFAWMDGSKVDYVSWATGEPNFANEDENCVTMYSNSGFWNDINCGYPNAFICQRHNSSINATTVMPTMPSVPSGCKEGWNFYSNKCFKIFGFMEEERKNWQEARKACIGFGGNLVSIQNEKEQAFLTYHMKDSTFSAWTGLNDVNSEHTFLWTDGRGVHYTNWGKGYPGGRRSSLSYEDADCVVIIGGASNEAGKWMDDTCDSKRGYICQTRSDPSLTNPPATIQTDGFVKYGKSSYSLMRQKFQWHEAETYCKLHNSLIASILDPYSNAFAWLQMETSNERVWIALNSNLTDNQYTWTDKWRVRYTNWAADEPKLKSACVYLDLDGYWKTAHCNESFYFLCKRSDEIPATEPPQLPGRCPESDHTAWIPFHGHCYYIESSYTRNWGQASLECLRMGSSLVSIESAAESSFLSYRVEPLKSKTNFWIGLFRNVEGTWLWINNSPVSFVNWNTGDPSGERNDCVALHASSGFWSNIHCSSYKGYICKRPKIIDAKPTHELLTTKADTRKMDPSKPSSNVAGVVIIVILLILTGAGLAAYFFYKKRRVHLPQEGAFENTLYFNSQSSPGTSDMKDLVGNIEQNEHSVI
Assay: cell-based or functional assay

internalization rate in U937 cells relative to imiglucerase (4-MU-glc activity assay): ≤ 2.5 fold
B1: velaglucerase alfa (enzyme, human, UniProt P04062 40-536, looked up)
chain: ARPCIPKSFGYSSVVCVCNATYCDSFDPPTFPALGTFSRYESTRSGRRMELSMGPIQANHTGTGLLLTLQPEQKFQKVKGFGGAMTDAAALNILALSPPAQNLLLKSYFSEEGIGYNIIRVPMASCDFSIRTYTYADTPDDFQLHNFSLPEEDTKLKIPLIHRALQLAQRPVSLLASPWTSPTWLKTNGAVNGKGSLKGQPGDIYHQTWARYFVKFLDAYAEHKLQFWAVTAENEPSAGLLSGYPFQCLGFTPEHQRDFIARDLGPTLANSTHHNVRLLMLDDQRLLLPHWAKVVLTDPEAAKYVHGIAVHWYLDFLAPAKATLGETHRLFPNTMLFASEACVGSKFWEQSVRLGSWDRGMQYSHSIITNLLYHVVGWTDWNLALNPEGGPNWVRNFVDSPIIVDITKDTFYKQPMFYHLGHFSKFIPEGSQRVGLVASQKNDLDAVALMHPDGSAVVVVLNRSSKDVPLTIKDPAVGFLETISPGYSIHTYLWRRQ
modifications: primarily high-mannose type N-glycans (6-9 mannose units per glycan) at Asn19, Asn59, Asn146, Asn270
